Molecular target: T1, CusB (E. coli, UniProt P77239 29-407)
T1 sequence (looked up): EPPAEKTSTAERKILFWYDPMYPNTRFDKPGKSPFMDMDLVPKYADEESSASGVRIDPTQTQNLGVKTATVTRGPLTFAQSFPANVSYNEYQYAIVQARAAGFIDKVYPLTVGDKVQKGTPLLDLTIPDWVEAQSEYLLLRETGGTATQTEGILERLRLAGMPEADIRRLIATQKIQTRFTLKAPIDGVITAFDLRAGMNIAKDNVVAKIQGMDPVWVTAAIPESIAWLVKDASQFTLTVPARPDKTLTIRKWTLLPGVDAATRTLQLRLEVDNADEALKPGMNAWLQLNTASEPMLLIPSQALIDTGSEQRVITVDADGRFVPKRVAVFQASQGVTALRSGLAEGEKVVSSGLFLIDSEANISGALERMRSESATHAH
Test: NMR 15N relaxation

B1: CusF (natural protein, E. coli, UniProt P77214 22-110, looked up)
chain: ANEHHHETMSEAQPQVISATGVVKGIDLESKKITIHHDPIAAVNWPEMTMRFTITPQTKMSEIKTGDKVAFNFVQQGNLSLLQDIKVSQ
Q: For B1, which Kd is on record?
A: Its Kd is roughly 160 µM.

— paper PMC3072847 (Biochemistry, 2011)
